Measured values reported in patent US20240182553A1 (NANJING GENSCRIPT BIOTECH, published 2024).

T1: Ang2 protein (R&D system) (UniProt O15123 19-496)
T1 sequence (looked up): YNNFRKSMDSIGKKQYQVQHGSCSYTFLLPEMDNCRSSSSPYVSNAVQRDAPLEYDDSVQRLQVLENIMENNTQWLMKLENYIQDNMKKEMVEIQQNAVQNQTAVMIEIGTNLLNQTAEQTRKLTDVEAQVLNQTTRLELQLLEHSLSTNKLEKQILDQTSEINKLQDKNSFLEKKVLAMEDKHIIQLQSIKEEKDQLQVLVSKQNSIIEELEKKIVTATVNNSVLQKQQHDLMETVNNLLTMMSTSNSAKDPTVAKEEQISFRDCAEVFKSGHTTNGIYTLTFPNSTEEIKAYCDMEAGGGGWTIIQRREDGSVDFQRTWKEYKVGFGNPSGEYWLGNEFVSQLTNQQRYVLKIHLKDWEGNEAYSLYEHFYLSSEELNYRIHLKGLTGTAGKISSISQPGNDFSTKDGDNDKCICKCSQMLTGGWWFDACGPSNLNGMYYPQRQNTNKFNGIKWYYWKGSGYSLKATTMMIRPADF


Biological target: T1, Ang2 protein (R&D system)
Experiment: cell-based or functional assay

Row | Binder | EC50 (phospho-Akt Ser473 HTRF dose-response, HUVEC + Ang2) [nM] | Span (phospho-Akt Ser473 HTRF dose-response, HUVEC + Ang2)
1 | 7F10B2-VL3-vegfr-VH3 (bispecific antibody, human IgG4 S228P, kappa) heavy: not shown light: DIQMTQSPSSLSASVGDRVTITCKASQSVSNDVAWYQQKPGKAPKLLIYYASNRFTGVPSRFSGSGSGTDFTLTISSLQPEDFATYYCQQDYSSRTFGGGTKVEIKRTVAAPSVFIFPPSDEQLKSGTASVVCLLNNFYPREAKVQWKVDNALQSGNSQESVTEQDSKDSTYSLSSTLTLSKADYEKHKVYACEVTHQGLSSPVTKSFNRGECESKYGPPSPPSPSDTGRPFVEMYSEIPEIIHMTEGRELVIPCRVTSPNITVTLKKFPLDTLIPDGKRIIWDSRKGFIISNATYKEIGLLTCEATVNGHLYKTNYLTHRQTNTIIDVVLSPSHGIELSVGEKLVLNCTARTELNVGIDFNWEYPSSKHQHKKLVNRDLKTQSGSEMKKFLSTLTIDGVTRSDQGLYTCAASSGLMTKKNSTFVRVHEK | 2.27 | 7460 HTRF ratio (665nm/620nm)
2 | 7F10B2-VH3-vegfr-VL3 (bispecific antibody, human IgG4 S228P, kappa) heavy: not shown light: DIQMTQSPSSLSASVGDRVTITCKASQSVSNDVAWYQQKPGKAPKLLIYYASNRFTGVPSRFSGSGSGTDFTLTISSLQPEDFATYYCQQDYSSRTFGGGTKVEIKRTVAAPSVFIFPPSDEQLKSGTASVVCLLNNFYPREAKVQWKVDNALQSGNSQESVTEQDSKDSTYSLSSTLTLSKADYEKHKVYACEVTHQGLSSPVTKSFNRGEC | 2.59 | 7330 HTRF ratio (665nm/620nm)
3 | 5F7D7-VH3-vegfr-VL5 (bispecific antibody, human IgG4 S228P, kappa) heavy: not shown light: DIQMTQSPSSLSASVGDRVTITCKASQSVSNDVAWYQQKPGKAPKLLIYFASNRYTGVPSRFSGSGYGTDFTFTISSLQPEDIATYFCQQDYSSPYTFGGGTKLEIKRTVAAPSVFIFPPSDEQLKSGTASVVCLLNNFYPREAKVQWKVDNALQSGNSQESVTEQDSKDSTYSLSSTLTLSKADYEKHKVYACEVTHQGLSSPVTKSFNRGEC | ~2.12 | 7020 HTRF ratio (665nm/620nm)
4 | 31E2D4-VH4-vegfr-VL1 (bispecific antibody, human IgG4 S228P, kappa) heavy: not shown light: DIQMTQSPSSLSASVGDRVTITCKASQSVSNDVAWYQQKPGKAPKLLIYYASNRYTGVPSRFSGSGSGTDFTLTISSLQPEDFATYYCQQDYSSPLTFGGGTKLEIKRTVAAPSVFIFPPSDEQLKSGTASVVCLLNNFYPREAKVQWKVDNALQSGNSQESVTEQDSKDSTYSLSSTLTLSKADYEKHKVYACEVTHQGLSSPVTKSFNRGEC | 2.39 | 7380 HTRF ratio (665nm/620nm)

More lines, now with the values ahead:

Row | EC50 (phospho-Akt Ser473 HTRF dose-response, HUVEC + Ang2) [nM] | Span (phospho-Akt Ser473 HTRF dose-response, HUVEC + Ang2) | Binder
5 | 2.53 | 5590 HTRF ratio (665nm/620nm) | hABTAA anti-Ang2 antibody (antibody, human IgG4 S228P, kappa, V domains shown) VH: QVQLQESGPGLVKPSETLSLTCAVSGYSITSDYAWNWIRQPPGKGLEWMGKISYSGKTDYNPSLKSRSTISRDTSKNQFSLKLSSVTAADTAVYYCARGNFEGAMDYWGQGTLVTVSS VL: DIQMTQSPSSLSASVGDRVTITCKASQSVSNDVAWYQQKPGKAPKLLIYYASNRYPGVPSRFSGSGSGTDFTLTISSLQPEDFATYYCQQDYSSPWTFGQGTKLEIKR
6 | 4.36 | 6380 HTRF ratio (665nm/620nm) | hABTAA-VH-vegfrVL (bispecific antibody, human IgG4 S228P, kappa) heavy chain: not shown light chain fusion polypeptide (VEGF-trap at N' of LC): SDTGRPFVEMYSEIPEIIHMTEGRELVIPCRVTSPNITVTLKKFPLDTLIPDGKRIIWDSRKGFIISNATYKEIGLLTCEATVNGHLYKTNYLTHRQTNTIIDVVLSPSHGIELSVGEKLVLNCTARTELNVGIDFNWEYPSSKHQHKKLVNRDLKTQSGSEMKKFLSTLTIDGVTRSDQGLYTCAASSGLMTKKNSTFVRVHEKGGGGSGGGGSGGGGSDIQMTQSPSSLSASVGDRVTITCKASQSVSNDVAWYQQKPGKAPKLLIYYASNRYPGVPSRFSGSGSGTDFTLTISSLQPEDFATYYCQQDYSSPWTFGQGTKLEIKRTVAAPSVFIFPPSDEQLKSGTASVVCLLNNFYPREAKVQWKVDNALQSGNSQESVTEQDSKDSTYSLSSTLTLSKADYEKHKVYACEVTHQGLSSPVTKSFNRGEC
7 | 4.72 | 7740 HTRF ratio (665nm/620nm) | vegfr-5A7B9-VL1.1-VH3 (bispecific antibody, human IgG4 S228P, kappa) heavy: not shown light: SDTGRPFVEMYSEIPEIIHMTEGRELVIPCRVTSPNITVTLKKFPLDTLIPDGKRIIWDSRKGFIISNATYKEIGLLTCEATVNGHLYKTNYLTHRQTNTIIDVVLSPSHGIELSVGEKLVLNCTARTELNVGIDFNWEYPSSKHQHKKLVNRDLKTQSGSEMKKFLSTLTIDGVTRSDQGLYTCAASSGLMTKKNSTFVRVHEKGGGGSGGGGSGGGGSDIQMTQSPSSLSASVGDRVTITCKASQSVSNDVAWYQQKPGKAPKLLIYYASNRYTGVPSRFSGSGSGTDFTLTISSLQPEDFATYFCQQDYSSPLTFGGGTKLEIKRTVAAPSVFIFPPSDEQLKSGTASVVCLLNNFYPREAKVQWKVDNALQSGNSQESVTEQDSKDSTYSLSSTLTLSKADYEKHKVYACEVTHQGLSSPVTKSFNRGEC
8 | 3.25 | 5440 HTRF ratio (665nm/620nm) | hABTAA-VH-VLvegfr (bispecific antibody, human IgG4 S228P, kappa) heavy chain: not shown light chain fusion polypeptide (VEGF-trap at C' of LC): DIQMTQSPSSLSASVGDRVTITCKASQSVSNDVAWYQQKPGKAPKLLIYYASNRYPGVPSRFSGSGSGTDFTLTISSLQPEDFATYYCQQDYSSPWTFGQGTKLEIKRTVAAPSVFIFPPSDEQLKSGTASVVCLLNNFYPREAKVQWKVDNALQSGNSQESVTEQDSKDSTYSLSSTLTLSKADYEKHKVYACEVTHQGLSSPVTKSFNRGECESKYGPPSPPSPSDTGRPFVEMYSEIPEIIHMTEGRELVIPCRVTSPNITVTLKKFPLDTLIPDGKRIIWDSRKGFIISNATYKEIGLLTCEATVNGHLYKTNYLTHRQTNTIIDVVLSPSHGIELSVGEKLVLNCTARTELNVGIDFNWEYPSSKHQHKKLVNRDLKTQSGSEMKKFLSTLTIDGVTRSDQGLYTCAASSGLMTKKNSTFVRVHEK
9 | 883 | 14300 HTRF ratio (665nm/620nm) | hABTAA-VHvegfr-VL (bispecific antibody, human IgG4 S228P, kappa) heavy: not shown light: DIQMTQSPSSLSASVGDRVTITCKASQSVSNDVAWYQQKPGKAPKLLIYYASNRYPGVPSRFSGSGSGTDFTLTISSLQPEDFATYYCQQDYSSPWTFGQGTKLEIKRTVAAPSVFIFPPSDEQLKSGTASVVCLLNNFYPREAKVQWKVDNALQSGNSQESVTEQDSKDSTYSLSSTLTLSKADYEKHKVYACEVTHQGLSSPVTKSFNRGEC
